Results published in US20080044436A1, “Method for Screening and Compositions for Treating Cancers” (priority 2004, published 2008).

How the values were obtained:
Assay type in all cases: cell-based, human
HeLa cells [1] = assay: Doubling time of reseeded HeLa colonies expressing exogenous TReP-132; conditions: HeLa cells expressing TReP-132; control pcDNA3 cells 18 hours
Procedure: HeLa cells were seeded in 12-well plates at an initial density of 100,000 cells per well, incubated for 24 hours, then transfected with each of the following plasmids: pcDNA3, pcDNA3-Luc, pcDNA3-SF-1, or pcDNA3-TReP-132, each containing the neomycin resistance gene. The transfections were carried out in triplicate with ExGen 500 (MBI Fermentas, Flamborough, Ontario, Canada) at a ratio of 5 μl of ExGen 500 per 1 μg of plasmid. After 12 hours of transfection, the medium was changed and the cells were incubated for an additional 8 hours. The cells were then trypsinized and transferred to a 100 mm petri dish. After 48 hours, the medium was supplemented with 400 μg/ml of the selection agent G418 (Sigma-Aldrich CA Ltd.). Distinct colonies could be detected after two weeks of selection with G418. The cells were then rinsed with PBS and fixed with a mixture of 10% acetic acid/10% methanol for 15 min, then colored with crystal violet (Sigma-Aldrich CA Ltd.).
(§1) The cell proliferation rate was determined by the cellular DNA content using the fluorochorome DABA ([…]). […] Fluorescence was measured on a Perkin-Elmer LS-2B Filter Fluorimeter at an excitation wavelength of 400 nm and an emission wavelength of 508 nm. The DNA content was calculated from a standard curve of known quantities of salmon sperm DNA.

HeLa cells [2] = assay: Cell proliferation of HeLa Tet-off cells with inducible TReP-132 (HTO-GFP/TReP-132); conditions: HTO-GFP/TReP-132 cells, Dox removed, after 4 days of culture; with Dox about 16 hours
From the text: HeLa Tet-off cells expressing the tTA transactivator under the control of tetracycline or doxycycline (Dox) (Clontech Laboratories, Palo Alto, Calif.) were stably transfected with the pBI-EGFP-TReP-132 vector or the pBI-EGFP control vector. In order to select stably transfected cells, the pcDNA6 plasmid (Invitrogen, Ontario, CA) containing the blasticidin resistance gene was cotransfected at a ratio of 1:50. For these transfections, the cells were first seeded in 6-well plates at an initial density of 1×10^5 cells per well, incubated for 24 hours, then transfected with ExGen 500 (MBI Fermentas, Flamborough, Ontario, CA) at a ratio of 5 μl of ExGen 500 for a total of 1 μg of plasmid such as described hereinabove in the section “Colony formation assays”. 48 hours post-transfection, cells were selected for 2 weeks with blasticidin (Sigma-Aldrich CA Ltd.). Clearly visible colonies were then were picked and subcloned on 12-well plates to enable growth. […]
as §1

pRb = assay: Western blot of pRb phosphorylation in HTO cells; conditions: HTO-GFP/TReP-132 cells after Dox removal, almost undetectable at 72 hours
Procedure: FIG. 9B: Protein extracts (20 μg) of HTO cells expressing GFP or GFP and TReP-132 under the control of doxycycline, incubated or not with dox for the indicated times, were analyzed by western blot using anti-pRb antibodies directed against all pRb forms (hyperphopshorylated, phosphorylated and hypophosphorylated) or only against pRb phosphorylated at Ser 780, a target residue of cyclin D1/CDK4.
Cells were washed twice with cold PBS (Phosphate Buffered Saline), then harvested either in cold RIPA buffer (1×PBS, 1% Nonidet P-40, 0.5% sodium deoxycholate, 0.1% SDS, phosphatase and protease inhibitors) for co-immunoprecipitation analysis, or in lysis buffer (50 mM Tris, pH 8.0, 0.1% IGEPAL (Sigma)) for kinase assays. The lysates were incubated for 30 min on ice and cell debris was eliminated by centrifugation. The extracts were then aliquoted and stored at −80° C. For western blot analysis, RIPA or lysate buffer was used. For immunoprecipitations, whole cell lysates (1 mg) in RIPA buffer were preincubated with 0.1 μg of mouse or rabbit IgG and 20 μl of protein A-Sepharose beads (Amersham Biosciences, Uppsala, Sweden) for 30 min at 4° C. […] The blots were then visualized with ECL reagent and quantified with SCANWISE and Perfect-IMAGE V-5.3 software (CLARA VISION, France).

p27^KiP1 gene = assay: RNase protection assay of CDKI transcription in HeLa cells, p27; conditions: HeLa Tet-off cells, doxycycline removed
Procedure: All radiolabelled probes specific for the p130, Rb, p107, p53, p57, p27, p21, p19, p18, p14/p15, L32, and GAPDH genes were labelled with [α-^32P]UTP-ribonucleotide (PerkinElmer Life Sciences, Woodbridge, Ontario, CA) in the conditions specified in the “hCC-2 Muti-Probe Template Set” kit (Pharmingen, Mississauga, Ontario, CA). Ribonuclease protection experiments were carried out with the Ribonuclease III Protection kit (Ambion, Austin, Tex.). Ten micrograms of HeLa cell RNA were hybridized with the radiolabelled probe mixture at 56° C. and then digested for 45 min at 30° C. in RNase A/RNase T1 solution diluted 1:1000 in digestion buffer. The samples were separated on a polyacrylamide-6% urea gel.

B1: TReP-132: Transcriptional Regulating Protein of 132 kDa, polypeptide comprising SEQ ID NO: 2; here expressed in cells from vectors (protein)
chain: MGDQQLYKTNHVAHGSENLFYQQPPLGVHSGLNHNYGNAVTGGGMDAPQASPISPHFPQDTRDGLGLPVGSKNLGQMDTSRQGGWGSHAGPGNHVQLRGNLANSNMMWGAPAQAEPTDGYQYTYSQASEIRTQKLTSGVLHKLDSFTQVFANQNLRIQVNNMAQVLHTQSAVMDGAPDSALRQLLSQKPMEPPAPAIPSRYQQVPQQPHPGFTGGLSKPALQVGQHPTQGHLYYDYQQPLAQVPVQGGQPLQAPQMLSQHMQQMQQHQYYPPQQQQQAGQQRISMQEIQTQPQQIRPSQPQPPPQQQQPQQLQLQQRQGSMQIPQYYQPQPMMQHLQEQQQQQMHLQPPSYHRDPHQYTPEQAHTVQLIPLGSMSQYYYQEPQQPYSHPLYQQSHLSQHQQREDSQLKTYSSDRQAQAMLSSHGDLGPPDTGMGDPASSDLTRVSSTLPHRPLLSPSGIHLNNMGPQHQQLSPSAMWPQMHLPDGRAQPGSPESSGQPKGAFGEQFDAKNKLTCSICLKEFKNLPALNGHMRSHGGMRASPNLKQEEGEKVLPPQPQPPLPPPPPPPPPPQLPPEAESLTPMVMPVSVPVKLLPPKPSSQGFTNSTVAAPSARDKPASSMSDDEMPVLEIPRKHQPSVPKAEEPLKTVQEKKKFRHRPEPLFIPPPPSYNPNPAASYSGATLYQSQLRSPRVLGDHLLLDPTHELPPYTPPPMLSPVRQGSGLFSNVLISGHGPGAHPQLPLTPLTPTPRVLLCRSNSIDGSNVTVTPGPGEQTVDVEPRINIGLRFQAEIPELQDISALAQDTHKATLVWKPWPELENHDLQQRVENLLNLCCSSALPGGGTNSEFALHSLFEAKGDVMVALEMLLLRKPVRLKCHPLANYHYAGSDKWTSLERKLFNKALATYSKDFIFVQKMVKSKTVAQCVEYYYTWKKIMRLGRKHRTRLAEIIDDCVTSEEEEELEEEEEEDPEEDRKSTKEEESEVPKSPEPPPVPVLAPTEGPPLQALGQPSGSFICEMPNCGAVFSSRQALNGHARIHGGTNQVTKARGAIPSGKQKPGGTQSGYCSVKSSPSHSTTSGETDPTTIFPCKECGKVFFKIKSRNAHMKTHRQQEEQQRQKAQKAAFAAEMAATIERTTGPVGAPGLLPLDQLSLIKPIKDVDILDDDVVQQLGGVMEEAEVVDTDLLLDDQDSVLLQGDAEL
doubling time (HeLa cells [1]): 30 h
doubling time (HeLa cells [2]): approximately 60 hours
phosphorylated pRb (ppRb) level (pRb): marked reduction
p27 gene transcription (p27^KiP1 gene): induction
